{"source": "patent US20050014687A1", "biological_target": "CG57008 protein, membrane bound (HAVcr-1, Hepatitis A virus cellular receptor 1) (human)", "experiment": "flow cytometry on polarized human CD4+ Th2 cells, 10 ug/ml; isotype control", "data": [{"substance": "PK16.3 isotype matched control mAb (antibody)", "values": [{"measurement": "geometric mean of the fluorescence intensity", "result": 8.4}]}]}
